Laboratory results: the supplement of paper PMC12042874
± gives the uncertainty stated by the source.

assay: amyloid nucleation score (Sup35N fusion, yeast selection) (log enrichment); library NNK2; higher = more nucleation; inactive = no reads after selection
Method in brief: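 Libraries of peptides of 20 random codons fused to Sup35N were expressed in psi-negative yeast and induced 24 hours with 100 μM copper sulfate. Selection was 7 days at 30°C on medium lacking adenine and uracil, and plasmid inserts were Illumina-sequenced before and after selection. Nucleation score is the DiMSum log enrichment of output over input reads, centred on the mode score of non-aggregating sequences, and sequences with under 100 input reads were left out.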

Substance	amyloid nucleation score
NVNGLLSTN	-0.172 ± 0.76
NVRFY	inactive
NVSIMFRFFVYLC	4.16 ± 0.066
NVSVNAEVN	-0.955 ± 0.54
NVTVAWFVNLSPWF	7.288 ± 0.045
NVVSLILVVLRASCTYLYNG	inactive
NVVTG	-0.11 ± 0.42
NVYLTQSWSFHNLHRFYYST	2.57 ± 0.083
NWCYTTSGHHRVTFGLQRLP	4.8 ± 0.052
NWGSRNFCW	-1.26 ± 1.1
NWLLN	-0.492 ± 0.76
NWPGCVHNTVISDLGRVHCM	-0.853 ± 0.56
NYFLY	7.28 ± 0.086
NYHPFLVF	-0.909 ± 0.54
NYIRYLRVYYIVGDELRPGN	8.026 ± 0.048
NYLASGQIIWLGYPSRSLSL	inactive
NYWGVARKFEFSDECLFLDG	0.596 ± 0.54
NYYGSVTRHFLSFLF	inactive
PADSTMGK	-0.856 ± 0.29
PALPTVNLNS	-0.475 ± 0.42
PARLTNCGDPSY	-0.997 ± 0.3
PAWAHVSLRLMLFYWGYLFY	inactive
PCGSCPRLQQIVSRDGDDAG	2.71 ± 0.21
PCVSMSVYILQLGPLGAWSR	7.454 ± 0.054
PCYGYQR	-0.024 ± 0.65

Substance	amyloid nucleation score
PDNLCMKPFLIAGYYVPTTA	-1.55 ± 0.61
PDSRPIVRRSANCIWSNSWF	1.38 ± 0.1
PDSYGNFHHSSYNHDHNLVH	inactive
PDVMLCIFYIDFMQGFFDLY	5.08 ± 0.07
PECVLVSFLRRAFELFAMCN	inactive
PEHYSGATRLVH	0.42 ± 0.47
PESYVGRSLSPTVLVMWKSD	0.102 ± 1.1
PFDTTCLYRYYSNFYPS	1.73 ± 0.19
PFGGSFVSAYSTKRLCHGSH	-1.2 ± 0.48
PFMCRLIYSELNDYIIELDE	-0.081 ± 0.5
PFNQDMLTIQIGTSIISRSS	-0.172 ± 1.1
PFVGSSGTWP	1.5 ± 0.12
PGEGMSQEERLMLCRCVWVT	0.874 ± 0.52
PGIVRGPYYGNMVIFLLKMF	2.89 ± 0.19
PGSRRL	0.011 ± 0.41
PHAHRNANLVWHQGKAPKGG	1.12 ± 0.53
PHHMIDAGASPSLN	-1.52 ± 0.62
PHLFRPGTADVLYHYMTMRK	0.628 ± 0.37
PICESWHFSLIVLMLFLNWE	inactive
PIDFVLCSNNSSSWPVHKQN	2.36 ± 0.11
PIGLGVCLVICLKNEVSRCW	3.37 ± 0.063
PIKVDEVCGCRRRWFGDWDS	-0.146 ± 1
PINVRNYKRVCGGMVV	inactive
PISLRGLYCVKDLMDKPM	0.113 ± 0.61
PISNLHILGFHHLTQHDRTV	1.05 ± 0.3

Substance	amyloid nucleation score
PITVYWCCDNS	3.84 ± 0.087
PKFLSFADSAFLICCRAIVF	6 ± 0.08
PKIKHMMAWVMFVAFKVCSC	-0.063 ± 0.29
PKKSVGKLNIILEVLPSTAV	-0.666 ± 0.53
PLCHLLYRSLMFFTLSEVSC	0.042 ± 0.8
PLDLYSVSIISLFEYIGVVR	-0.948 ± 1
PLDTYLWAYLLPWWSLCTSI	inactive
PLMRGECGALLRLMFNTVS	inactive
PLNGIRFWSDVNLSRDGSSM	-0.025 ± 1.1
PLSLYNFIFYNAEVPYVVVT	1.84 ± 0.1
PLYLYA	4.28 ± 0.078
PMFCFCPLCLWHKDCISINS	8.227 ± 0.078
PMSYLVWVSDFYLLRGGS	0.019 ± 1.1
PMVDRMMDASRWLPLDY	0.109 ± 0.45
PMVYRYKGRHIN	-1.27 ± 0.62
PMWRVFAFYRWVALMSLTRI	inactive
PNDLLHLSRLIQDMWMINFN	inactive
PNFRVVFCLRSV	9.978 ± 0.024
PNPLSMLRLYRNKASVFSIK	0.745 ± 0.41
PPLLSISYKRRRVMFHFHVF	inactive
PPVVVSTSIWSRLCSYV	0.151 ± 0.35
PPYALDVTFVMRPKLSSR	1.21 ± 0.23
PRHSSSPALILWNYPNLTGI	-0.708 ± 0.37
PRLGWHVLLVQIAVG	2.94 ± 0.085
PRMGFNDPARLGG	-1.34 ± 0.76

Substance	amyloid nucleation score
PRRMNRGYQNDYFISTVFSV	-0.711 ± 0.64
PRRNWMLVCTIIFVWNEKEY	0.034 ± 1.1
PRRYLTIPLSFFLHNSIIGI	inactive
PSDSECISCSCLDRWYRVFE	2.94 ± 0.12
PSLFTVFNVRLFQE	4.12 ± 0.072
PSVGYSITWGNILLYRIGFR	-1.19 ± 1
PSVRTYTV	4.67 ± 0.054
PSVVVSNTYIGSPGYKRIWF	7.844 ± 0.071
PSWAELRVAYLLCGSGQPG	1.43 ± 0.19
PSYRCK	inactive
PTCMLCA	0.868 ± 0.44
PTCSNHCFFYLNHTN	3.66 ± 0.12
PTLTSIELSSTPRIRFWDSA	0.122 ± 0.26
PTPYKGRLLFPHHSGLYLIG	-1.23 ± 1.1
PTRFSLDHWFPSVHYYPRLY	-1.05 ± 1.1
PTSDMWSCNNL	0.961 ± 0.81
PVDVIHSRFVTGHFD	-0.853 ± 0.78
PVFAFQYLSLCKWDLF	-0.976 ± 1
PVKIGMFPVGRWQFKDQFGF	-0.704 ± 0.44
PVLVGESHSIGL	0.863 ± 0.24
PVNWGQGITTKALWYMTLRF	-0.417 ± 1.1
PVSALAVFRCLMYSCFCGDL	6.172 ± 0.035
PVYMFKYLVTLIWPHSKATF	0.102 ± 0.34
PWIAGCNMRTNWFNILNCPV	-0.583 ± 0.38
PYTSSLLLQDRVLARGAYCR	1.25 ± 0.36

Substance	amyloid nucleation score
PYVHVYLWQSLKALVYLTCY	inactive
PYVTFITLCSAFKYVYKCWY	5.448 ± 0.047
PYYCMSYLAPWCPDELRAS	inactive
QAFVNFNIIYDV	5.959 ± 0.053
QALQFIVSQRL	3.59 ± 0.11
QCDVSRGAFEGFPYVYMEMW	-1.4 ± 0.62
QCGRKFFDNRGGGLITPHPV	0.107 ± 0.42
QCQRLSWRCMWCGMSLYQYD	3.98 ± 0.048
QCTHPGLVVIYRSLAKDYLS	-0.285 ± 0.48
QCVTSCCSSHEWHSTRQMIF	-0.502 ± 0.46
QDMLWVPCNSGYRTQ	0.627 ± 0.47
QELYSDLPRPSGSPLQLWAK	-0.246 ± 0.76
QFIEMEKIDVVFQEYIGEEG	-0.265 ± 0.41
QFLTLCSKSNVRTCYSHSCN	2.75 ± 0.19
QFRTICKLWA	-0.099 ± 0.42
QFSLAVSTLSL	1.48 ± 0.27
QGDWVEGV	0.144 ± 0.79
QGFVPHRSIWHTSNLSDWFM	inactive
QGGFMIFDRITGGLRVMNGL	0.263 ± 0.23
QGILGSFIGKRCGFTRLKTL	inactive
QHRFFQYYRS	-1.5 ± 0.64
QHVFKVVSVALIMRCYDCGI	1.64 ± 0.11
QHYRSYTSILVCSYFYFDAQ	3.12 ± 0.12
QICNARFLLLLRTQALEQCA	0.499 ± 0.56
QIFKDSWSNIFRVYSCAVGM	4.33 ± 0.062

Substance	amyloid nucleation score
QIKRQGHLESPSRQR	0.128 ± 0.37
QIPCCWGPYVWSRAMGCSLE	1.78 ± 0.15
QIPNILVGNDMICVKKVLNW	2.97 ± 0.051
QKDLVSRGQYEVIVDSGTLG	4.446 ± 0.035
QKEENSWPGLIRCNLGVREG	0.092 ± 0.22
QKHAYAWLTPF	1.54 ± 0.21
QKNLEGLPEVEGNRRRCVVR	0.033 ± 0.52
QKRPVDIVPDHVWLWTR	0.114 ± 0.55
QKYLYQGCHLI	-1.24 ± 0.32
QLDGWELATHRWCVILYVGC	-0.471 ± 0.48
QLFHAWTTWPSGDHNIAWRY	3.3 ± 0.14
QLFRCGRWGLLFSAAFFYLV	0.264 ± 0.8
QLGRYLCHTIFKHRLYICTW	0.113 ± 1.1
QLHLTEVLFQS	0.154 ± 0.22
QLIMS	inactive
QLKYVSGNIYRLVVWVRGSP	-0.926 ± 0.37
QLQVSYYQRSGMFERFRLEW	2.46 ± 0.18
QLVLQVNRYVYRIMSTLTLS	0.848 ± 0.52
QNQVGIRGILHHMMNSLRTQ	3.87 ± 0.055
QPILSNLLNHLYTNILSSTL	-0.936 ± 0.64
QPISVMSNLSEIIWTYSMRA	-0.002 ± 0.63
QQMSIHRYADGVFELGIPVM	0.11 ± 0.54
QRHAVWGSSGDLTYELIGSL	inactive
QRIPWV	-0.509 ± 1.1
QRLYFMIMSQPAFGTFRGIY	-0.95 ± 1.1

Substance	amyloid nucleation score
QRYGVFAYGRLIRIHCRRLG	0.159 ± 0.29
QSGYVGNGVWVVTVVSKLMC	6.796 ± 0.037
QSHTGWYLVFV	0.05 ± 1
QSHTYRL	1.55 ± 0.25
QSRCGYMGNRH	0.166 ± 0.76
QSTMDCT	0.082 ± 1.1
QTGNFPIDHVQYCFFRITLS	-1.28 ± 0.62
QTLMLRSCYNWYPCGAAVVP	2.5 ± 0.093
QTNCETCVFNNTFELMLHQS	4.37 ± 0.087
QTNST	0.526 ± 0.57
QTNTGIVESQRSVCLNKIAR	0.234 ± 0.17
QTVQVRPVRYGSQSFRNFGW	-0.109 ± 0.49
QVAKAYFEEGRRDDFSYHGK	0.171 ± 0.56
QVFAHIAVSYGLLFFLHWEC	-0.331 ± 1
QVSSTST	0.592 ± 0.35
QVSYNLCNR	inactive
QWCYSAVYSMLVSKRL	2.68 ± 0.078
QWTLVL	-0.599 ± 0.55
QWYPNFHFHAISLCKYTGQG	0.017 ± 0.19
QYHCPS	-0.616 ± 0.5
QYLVRYLYAITLK	-0.603 ± 1
